Columns and labels:
[1] = molecular target: soluble biotinylated cognate peptide-MHC of the A6 TCR; experiment: BLI; Octet RED96; biotinylated pMHC (5 µg/mL) loaded on streptavidin tips; TCR in twofold serial dilutions from 200 nM, 900 s association, 600 s dissociation; PBS with kinetic buffer; 1:1 binding model
[2] = molecular target: soluble biotinylated cognate peptide-MHC of the DMF5 TCR; experiment: as above

| Kd [1] [nM] | koff [1] [s⁻¹] | Kd [2] [nM] | koff [2] [s⁻¹] | Substance |
| --- | --- | --- | --- | --- |
| 8.3 | 0.000416 | – | – | wild-type high-affinity A6 TCR (soluble α/β heterodimer) |
| – | – | 31.6 | 7.4e-05 | wild-type DMF5 TCR (soluble α/β heterodimer) |

From article PMC7027902
